Assay results from paper PMC9902533, “Direct digital sensing of protein biomarkers in solution”.

Key:
[1] = target: CD63 on exosomes (human? (MDA-MB-231 breast cancer cell …, UniProt P08962 2-238)); assay: microchip free-flow electrophoresis, single-particle counting (DigitISA); 5, 50, 100 nM aptamer; isolated exosomes; 10 mM HEPES pH 7.4, 0.05% Tween-20, room temperature (IgE; fibrils and exosomes same buffer); FUS: 50 mM Tris-HCl pH 7.4, 25 mM KCl, 0.02% Tween-20, on-chip desalting; oligomers: from PBS pH 7.4, on-chip desalting; settings: protein: native; tags: none; label: fluorescent label, not specified
CD63 on exosomes (human?, sequence (P08962 2-238): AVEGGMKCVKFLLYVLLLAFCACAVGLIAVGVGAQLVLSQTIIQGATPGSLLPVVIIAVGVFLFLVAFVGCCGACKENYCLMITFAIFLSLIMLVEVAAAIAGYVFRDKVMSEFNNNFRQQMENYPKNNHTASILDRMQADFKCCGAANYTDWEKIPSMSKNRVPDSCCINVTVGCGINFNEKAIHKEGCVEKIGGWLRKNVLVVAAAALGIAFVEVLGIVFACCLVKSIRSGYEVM

[2] = target: FUS-SNAP (UniProt P35637 1-526); assay: microchip free-flow electrophoresis (DigitISA); 700 nM aptamer, 2 uM FUS, condensates present; monomer-bound vs free; 10 mM HEPES pH 7.4, 0.05% Tween-20, room temperature (IgE; fibrils and exosomes same buffer); FUS: 50 mM Tris-HCl pH 7.4, 25 mM KCl, 0.02% Tween-20, on-chip desalting; oligomers: from PBS pH 7.4, on-chip desalting; settings: protein: recombinant; tags: SNAP; label: 3'-Atto488
FUS-SNAP, sequence (P35637 whole entry): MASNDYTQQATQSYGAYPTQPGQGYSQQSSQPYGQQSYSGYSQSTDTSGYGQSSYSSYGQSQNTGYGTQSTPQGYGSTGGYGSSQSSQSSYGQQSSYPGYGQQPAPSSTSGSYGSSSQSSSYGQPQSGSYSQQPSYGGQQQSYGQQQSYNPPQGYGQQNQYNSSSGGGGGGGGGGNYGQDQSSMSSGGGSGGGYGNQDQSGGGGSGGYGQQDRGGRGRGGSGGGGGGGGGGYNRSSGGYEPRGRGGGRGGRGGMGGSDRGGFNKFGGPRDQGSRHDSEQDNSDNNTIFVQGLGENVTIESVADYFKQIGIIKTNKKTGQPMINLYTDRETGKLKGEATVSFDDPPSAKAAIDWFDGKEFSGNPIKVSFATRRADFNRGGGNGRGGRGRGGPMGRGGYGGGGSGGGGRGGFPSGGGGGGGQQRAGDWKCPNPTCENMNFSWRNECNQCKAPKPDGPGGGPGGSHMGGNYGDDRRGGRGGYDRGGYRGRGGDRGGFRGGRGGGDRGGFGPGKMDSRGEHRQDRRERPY

[3] = target: alpha-synuclein oligomers (human, UniProt P37840 1-140); assay: microchip free-flow electrophoresis, single-molecule counting (DigitISA); 100 nM aptamer; complex 32.7 pM; 10 mM HEPES pH 7.4, 0.05% Tween-20, room temperature (IgE; fibrils and exosomes same buffer); FUS: 50 mM Tris-HCl pH 7.4, 25 mM KCl, 0.02% Tween-20, on-chip des

CACCCCACCTCGCTCCCGTGACACTAATGCTA (structured_DNA) [CD63 aptamer]
binding result [1]: binds

UUGUAUUUUGAGCUAGUUUGGUGAC (ssRNA) [GGUG RNA aptamer]
Kd [2]: 280 ± 20 nM

TTTTGGGTCGGCTGTCCGTGGGTGGGGA (structured_DNA) [T-SO606 aptamer]
binding result [3]: binds
